From publication PMC4338336

T1: Msl5-(KH-QUA2) (Saccharomyces cerevisiae, UniProt Q12186 144-271)
T1 sequence: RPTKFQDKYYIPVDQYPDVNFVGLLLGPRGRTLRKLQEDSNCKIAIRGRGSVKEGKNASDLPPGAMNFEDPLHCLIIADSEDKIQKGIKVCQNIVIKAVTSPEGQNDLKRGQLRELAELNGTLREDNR


Tests used:
[1] = target: T1, Msl5-(KH-QUA2); experiment: EMSA
[2] = target: T1, Msl5-(KH-QUA2); experiment: EMSA; remark: listed apart in the source

Binder	binding result [1]	apparent K (half saturation) [2] [nM]
UAUACGAACAA (ssRNA) [11-mer RNA U4G]	no binding	–
UAUACUAGCAA (ssRNA) [11-mer RNA A6G]	no binding	–
UAUACUAUCAA (ssRNA) [11-mer RNA A6U]	no binding	–
UAUACCAACAA (ssRNA) [11-mer RNA U4C]	no binding	–
UAUACUAACAA (ssRNA) [11-mer branchpoint RNA (WT)]	–	140
